Reference: USRE44022 (COMMISSARIAT A L ENERGIE ATOMIQUE, dated 2013)
Square brackets hold non-standard residues; d marks the D form.

B1: P11 (peptide)
peptide: cyclo([dF]PQIMRIKPHQGQHIGE)
SMILES: CC[C@H](C)[C@@H]1NC(=O)[C@H](Cc2c[nH]cn2)NC(=O)[C@H](CCC(N)=O)NC(=O)CNC(=O)[C@H](CCC(N)=O)NC(=O)[C@H](Cc2c[nH]cn2)NC(=O)[C@@H]2CCCN2C(=O)[C@H](CCCCN)NC(=O)[C@H]([C@@H](C)CC)NC(=O)[C@H](CCCNC(=N)N)NC(=O)[C@H](CCSC)NC(=O)[C@H]([C@@H](C)CC)NC(=O)[C@H](CCC(N)=O)NC(=O)[C@@H]2CCCN2C(=O)[C@@H](Cc2ccccc2)NC(=O)[C@H](CCC(=O)O)NC(=O)CNC1=O
notes: Cyclopeptide; 6); also called P11 (cyclic) peptide
B2: P23 (peptide)
peptide: cyclo([dY]PRIKPHQ)
SMILES: CC[C@H](C)[C@@H]1NC(=O)[C@H](CCCNC(=N)N)NC(=O)[C@@H]2CCCN2C(=O)[C@@H](Cc2ccc(O)cc2)NC(=O)[C@H](CCC(N)=O)NC(=O)[C@H](Cc2c[nH]cn2)NC(=O)[C@@H]2CCCN2C(=O)[C@H](CCCCN)NC1=O
B3: P24 (peptide)
peptide: GRIKPH
modifications: cyclic (cyclo, ends of the linear peptide coupled)
notes: Cyclopeptide; also called cyclo(Gly-Arg-Ile-Lys-Pro-His)
B4: P21 (peptide)
peptide: cyclo([dF]PIMRIKPHQGQHI)
SMILES: CC[C@H](C)[C@@H]1NC(=O)[C@H](CCCNC(=N)N)NC(=O)[C@H](CCSC)NC(=O)[C@H]([C@@H](C)CC)NC(=O)[C@@H]2CCCN2C(=O)[C@@H](Cc2ccccc2)NC(=O)[C@H]([C@@H](C)CC)NC(=O)[C@H](Cc2c[nH]cn2)NC(=O)[C@H](CCC(N)=O)NC(=O)CNC(=O)[C@H](CCC(N)=O)NC(=O)[C@H](Cc2c[nH]cn2)NC(=O)[C@@H]2CCCN2C(=O)[C@H](CCCCN)NC1=O
notes: Cyclopeptide
B5: P19 (peptide)
peptide: QIMRIKPHQGQHIGE
modifications: cyclic (cyclo, cyclised on the solid phase, method B)
notes: Cyclopeptide
B6: P9 (peptide)
peptide: PRIKPHQGQH
modifications: cyclic (cyclo, ends of the linear peptide coupled)
notes: Cyclopeptide
B7: P17 (peptide)
peptide: PRIKPHQG
modifications: cyclic (cyclo, ends of the linear peptide coupled)
notes: Cyclopeptide
B8: P12 (peptide)
peptide: GQIMRIKPHQGQHIGE
modifications: cyclic (cyclo, ends of the linear peptide coupled)
notes: Cyclopeptide
B9: P16 (peptide)
peptide: RIKPHQG
modifications: cyclic (cyclo, ends of the linear peptide coupled)
notes: Cyclopeptide; also called cyclo(Arg-Ile-Lys-Pro-His-Gln-Gly)
B10: P20 (peptide)
peptide: cyclo([dF]PQIMRIKPHQGQHIG)
SMILES: CC[C@H](C)[C@@H]1NC(=O)[C@H](Cc2c[nH]cn2)NC(=O)[C@H](CCC(N)=O)NC(=O)CNC(=O)[C@H](CCC(N)=O)NC(=O)[C@H](Cc2c[nH]cn2)NC(=O)[C@@H]2CCCN2C(=O)[C@H](CCCCN)NC(=O)[C@H]([C@@H](C)CC)NC(=O)[C@H](CCCNC(=N)N)NC(=O)[C@H](CCSC)NC(=O)[C@H]([C@@H](C)CC)NC(=O)[C@H](CCC(N)=O)NC(=O)[C@@H]2CCCN2C(=O)[C@@H](Cc2ccccc2)NC(=O)CNC1=O
notes: Cyclopeptide
B11: P8 (peptide)
peptide: GRIKPHQGH
modifications: cyclic (cyclo, ends of the linear peptide coupled)
notes: Cyclopeptide

What follows are binders tested against T1, KDR receptor (VEGFR-2) (UniProt P35968 20-1356, limits assumed) (assay: cell-based or functional assay).
T1 sequence (P35968 20-1356 limits assumed): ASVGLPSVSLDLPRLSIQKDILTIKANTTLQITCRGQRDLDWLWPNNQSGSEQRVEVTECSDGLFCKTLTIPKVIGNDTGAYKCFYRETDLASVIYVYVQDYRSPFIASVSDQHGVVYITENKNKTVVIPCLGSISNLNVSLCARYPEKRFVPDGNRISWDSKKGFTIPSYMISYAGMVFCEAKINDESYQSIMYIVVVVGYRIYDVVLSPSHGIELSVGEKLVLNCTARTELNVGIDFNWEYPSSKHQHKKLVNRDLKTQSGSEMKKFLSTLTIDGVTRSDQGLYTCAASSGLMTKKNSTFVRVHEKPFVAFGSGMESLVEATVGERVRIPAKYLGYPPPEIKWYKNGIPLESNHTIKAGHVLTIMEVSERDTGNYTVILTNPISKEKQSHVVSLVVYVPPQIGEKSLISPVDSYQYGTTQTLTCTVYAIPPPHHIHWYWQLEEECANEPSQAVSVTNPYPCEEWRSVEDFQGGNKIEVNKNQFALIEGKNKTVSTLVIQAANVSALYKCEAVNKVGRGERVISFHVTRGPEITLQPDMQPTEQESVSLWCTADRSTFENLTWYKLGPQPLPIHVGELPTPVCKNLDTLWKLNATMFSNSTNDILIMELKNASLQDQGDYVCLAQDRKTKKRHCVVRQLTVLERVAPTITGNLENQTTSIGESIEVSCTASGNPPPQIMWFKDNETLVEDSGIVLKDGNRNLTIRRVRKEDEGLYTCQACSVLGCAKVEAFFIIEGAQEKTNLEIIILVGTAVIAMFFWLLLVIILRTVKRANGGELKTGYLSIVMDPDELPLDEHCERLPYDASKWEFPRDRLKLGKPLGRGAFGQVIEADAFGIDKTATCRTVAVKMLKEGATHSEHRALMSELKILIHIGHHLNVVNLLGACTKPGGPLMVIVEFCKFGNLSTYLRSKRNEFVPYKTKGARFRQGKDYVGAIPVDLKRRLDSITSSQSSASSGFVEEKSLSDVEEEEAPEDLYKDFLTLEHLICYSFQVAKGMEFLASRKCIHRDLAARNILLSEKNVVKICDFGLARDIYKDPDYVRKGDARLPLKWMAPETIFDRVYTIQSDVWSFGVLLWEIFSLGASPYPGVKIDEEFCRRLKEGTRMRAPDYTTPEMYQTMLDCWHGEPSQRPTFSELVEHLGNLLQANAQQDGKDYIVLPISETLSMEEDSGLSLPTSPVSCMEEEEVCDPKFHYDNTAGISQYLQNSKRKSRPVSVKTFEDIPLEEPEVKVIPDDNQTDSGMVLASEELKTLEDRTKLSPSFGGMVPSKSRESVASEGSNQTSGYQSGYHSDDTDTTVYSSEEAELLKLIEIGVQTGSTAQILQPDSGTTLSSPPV
With B1 the “Migration (IC50)” value was 30 µM and the “Proliferation (IC50)” value was 7 µM.

What follows are binders tested against KDR receptor (VEGFR-2) (UniProt P35968) (assay: displacement of 125I-VEGF from CHOm VEGFR2 cells).
KDR receptor (VEGFR-2) (UniProt P35968), sequence (P35968 20-1356 limits assumed): as above
Binder B2 has an IC50 of 8 µM.

Each binder was assayed against T1, KDR receptor (VEGFR-2) (assay: displacement of 125I-VEGF from CHOm VEGFR2 cells).
B3 showed an IC50 of 8 µM. B4 was tested, and the IC50 was 200 µM. B5 was tested, and the IC50 was 5 µM. In the case of B6, the IC50 is reported as 300 µM. B7 showed an IC50 of 10 µM. B8 showed an IC50 of 300 µM. B9 gave an IC50 of 32 µM. In the case of B1, the IC50 is reported as 2 µM. Binder B10 has an IC50 of 10 µM. With B11 the IC50 was 200 µM.
